{
  "source": "patent US7070943B2",
  "about": "(priority 1998, dated 2006)",
  "molecules": {"B1": {"name": "ONCONASE®: basic protein of 12,000 MW isolated from oocytes or early embryos of Rana pipiens, homologous to pancreatic RNase A (protein, UniProt P22069 1-104, looked up)", "Protein P-30": "QDWLTFQKKHITNTRDVDCDNIMSTNLFHCKDKNTFIYSRPEPVKAICKGIIASKNVLTTSEFYLSDCNVTSRPCKYKLKKSTNKFCVTCENQAPVHFVGVGSC"}},
  "format_in_all_cases": "cell-based, Human",
  "key": {"[1]": {"test_system": "cyclin E", "experiment": "Cyclin E expression by multiparameter flow cytometry in U937 cells", "conditions": "U937 cells growing in presence of drug", "method": "(§1) Following incubations in the absence or presence of ONCONASE®, the cells were washed with phosphate-buffered saline (PBS) and fixed in suspension in either ice-cold 80% ethanol or absolute methanol for up to 24 h. After fixation, the cells were washed twice with PBS and then suspended in 1 ml of 0.25% Triton X-100 (Sigma, St. Louis, Mo., USA) in PBS on ice for 5 min. The cells were then centrifuged (300 g, 5 min), the cell pellet suspended 100 μl PBS containing 0.5 μg of the anti-cyclin (or anti-CKI) mAb and 1% bovine serum albumin (BSA; Sigma), and incubated for 2 h at room temperature. […]\n(§2) Cellular fluorescence was measured with the ELITE ESP flow cytometer/cell sorter (Coulter, Miami, Fla., USA) using either argon ion laser (emission at 488 nm) alone or combined with helium-cadmium laser (emitting UV light). In the first case, fluorescence signals were collected using the standard configuration of the flow cytometer (green fluorescence, representing directly or indirectly FITC-labeled antibodies; red fluorescence representing CYCHROME® tagged anti-pRB^T mAb). In the second case, DNA content was analyzed based on DAPI fluorescence (blue emission) excited by UV light, while the anti-pRB^P− mAb (FITC) and anti-pRB^T (Cy-Chrome®) related emission was excited with blue light laser."}, "[2]": {"test_system": "cyclin D3", "experiment": "Cyclin D3 expression by multiparameter flow cytometry in U937 cells", "conditions": "U937, 170 nM", "method": "Anti-cyclin D3 mAb immunofluorescence in combination with DNA content was measured by multiparameter flow cytometry (a). […] There were 48%, 38% and 14% of cells in G1, S, and G2/M in Exp culture compared with 64%, 24% and 13% cells in G1, S, and G2/M, respectively, in Onc culture. The scattergrams represent bivariate distributions of the cells with respect to their cyclin D3 vs. DNA content associated fluorescence intensities. The upper level of the isotype-matched control (mean fluorescence+3 standard deviations) is marked in the Exp panel with a dashed line. The bar plots represent the mean FITC (anti-cyclin D3 mAb) fluorescence values (arbitrary units) of the cells in different phases of the cycle (gated based on differences in DNA content as shown in the Exp panel), after subtraction of the background fluorescence, i.e., mean fluorescence of the same cells but stained with isotype-matched control IgG antibody. […]\nCellular fluorescence was measured with the ELITE ESP flow cytometer/cell sorter (Coulter, Miami, Fla., USA) using either argon ion laser (emission at 488 nm) alone or combined with helium-cadmium laser (emitting UV light). […] In the second case, DNA content was analyzed based on DAPI fluorescence (blue emission) excited by UV light, while the anti-pRB^P− mAb (FITC) and anti-pRB^T (Cy-Chrome®) related emission was excited with blue light laser."}, "[3]": {"test_system": "p21^WAF1/CIP1", "experiment": "p21^WAF1/CIP1 expression by flow cytometry in U937 cells", "conditions": "U937, 170 nM, 72 hours", "method": "as §1, §2"}, "[4]": {"test_system": "U937 cells", "experiment": "Growth and viability of U937 cells, trypan blue exclusion", "conditions": "U937, 170 nM (20 μg/ml)", "text": "FIG. […] The percentage of dead cells was estimated based on the trypan blue exclusion test. The percentage of cells in the respective phases was estimated flow cytometrically based on their DNA content. Apoptotic cells (Ap) were recognized as the cells with fractional DNA content (sub-G1), as previously described;\nHuman histiocytic lymphoma U-937 cells were purchased from American Type Culture Collection (Manassas, Va., USA) and were maintained in RPMI 1640 medium supplemented with 10% fetal bovine serum, 100 U/ml of penicillin, 100 μg/ml streptomycin and 2 mM glutamine (all from Life Technologies, Grand Island, N.Y., USA). The suspension cultures were passaged by re-seeding the cells at a density of 1×10^5 cells/ml. The cells were studied during their exponential and asynchronous growth, generally within 72 hours of their re-seeding in medium with fresh serum, before reaching density of 8×10^5 cells/ml. The cultures were periodically tested for Mycoplasma infection by staining of cytocentrifuge preparations with the DNA fluorochrome 4,6-diamidino-2-phenylindole (DAPI; Molecular Probes, Eugene, Oreg., USA).\nONCONASE®, provided by Alfacell (Bloomfield, N.J., USA), was diluted in RPMI to the final concentrations as shown in the Results below and figure legends above. […]"}, "[5]": {"test_system": "p27^KIP1", "experiment": "p27^KIP1 expression by flow cytometry in U937 cells", "conditions": "U937, 170 nM, 72 hours", "method": "as §1, §2"}},
  "data": [
    {"molecule": "B1", "values": [
      {"measurement": "expression of cyclin E", "setting": "[1]", "value": "not significantly changed"},
      {"measurement": "decrease of overall level of cyclin D3", "setting": "[2]; after 24 h", "value": "about 20%"},
      {"measurement": "reduction of overall level of cyclin D3", "setting": "[2]; after 48 hours", "value": "over 70%"},
      {"measurement": "increase in p21^WAF1/CIP1", "setting": "[3]", "value": "Over four-fold"},
      {"measurement": "cell proliferation suppressed", "setting": "[4]; initial 72 hours of treatment", "value": "approximately 50%"},
      {"measurement": "cells dead", "setting": "[4]; initial 72 hours, trypan blue", "value": "< 10", "unit": "%"},
      {"measurement": "increase in p27^KIP1", "setting": "[5]", "value": "Over four-fold"}
    ]}
  ]
}
